Values of other authors, collected in PMC4271846.

Target: tau (Homo sapiens) (UniProt P10636)
Test: SPR

Question: For tau (from UniProt P10636), which Kd is on record?
Answer: 46 µM
